# Data published in patent US10336829B2, “Intracellular delivery compounds” (Sorrento Therapeutics, Inc., priority 2015, dated 2019).
# How the values were obtained:
# [1] = system: MCF-10A cells; assay: Caveolin and clathrin-dependent compound 901a uptake in MCF-10A cells; type: cell-based, human; details: 30 min pretreatment
# Description: Clathrin-mediated endocytosis is mediated by small vesicles that have a morphologically characteristic coat made up of a complex of proteins that are mainly associated with the cytosolic protein clathrin. Caveolae are the most common reported non-clathrin-coated plasma membrane buds, which exist on the surface of many, but not all cell types. They consist of the cholesterol-binding protein caveolin (Vip21) with a bilayer enriched in cholesterol and glycolipids. Both clathrin mediated endocytosis and caveolae transport extracellular molecules into the cell. 5,000 cells were seeded per well in a 96 well plate, overnight. Cells were pretreated with the clathrin inhibitor Pitstop2 (30 uM or 60 uM) or the caveolin inhibitor filipin (0.5 ug/ml or 1.0 ug/ml) for 30 minutes. […] Cells were fixed and imaged with IncuCyte. DMSO and antibody only were used as controls.
# [2] = system: cellular antigens in U251 cells; assay: Cell binding of naked ST3G12 versus compound 901a in permeabilized U251 cells (HTFC); details: 45 min room temperature, PE anti-human IgG
# Description: After 45 minutes at room temperature, cells were washed twice and incubated with phycoerythrin (PE) conjugated-anti-human IgG for 20 minutes at room temperature in the dark. Cells were then washed and analyzed by high throughput flow cytometry (HTFC). The results are shown in FIG. 9 for assessment of antibody binding to cellular antigens in U251 cells.
# [3] = molecular target: T1, STAT3 (Homo sapiens, UniProt P40763); assay: Biacore T200 affinity to recombinant human STAT3-GST; details: Biacore T200, 1:1 (Langmuir) binding model
# Description: (§1) Anti-human Fc antibody (GE, BR-1008-39) was immobilized on a CMS sensor chip to approximately 1000 RU using standard NHS/EDC coupling methodology. Antibodies (approximately 10 ug/ml) were captured for 60 seconds at a flow rate of 10 ul/min Recombinant human STAT3-GST was serially diluted 2-fold into running buffer (HBS-EP+, starting from […]). All measurements were conducted at a flow rate of 30 ul/min Surfaces were regenerated with 3M MgCl2 (from human antibody kit) for 60 seconds. A 1:1 (Langmuir) binding model was used to fit the data.
# [4] = system: GST protein; assay: Biacore binding to GST protein; details: Biacore assay
# Description: as §1
# [5] = system: U251 cells; assay: Cell penetration in U251 cells by microscopy; type: cell-based; details: 20 ug/mL, 2 hours at 37° C.
# Description: Briefly, previously cleaned glass coverslips were coated with collagen for 2 hours at 37° C. 100,000 U251 cells were seeded on the coverslips. Media was removed, and cells were rinsed once with fluorobrite. Next, 20 ug/mL of the specified antibody was added for 2 hours at 37° C. Cells were fixed in 4% PFA for 15 minutes and then permeabilized with 0.1% TritonX for 15 minutes. Cells were blocked with 3% BSA for 30 minutes and 1:250 GAH-Alexa fluor 488 was added for 1 hour. Next, 200× wheat germ agglutinin Alexa fluor 555 (WGA 555) and 1:1000 DAPI was added for 30 minutes. Cells were washed 3× with PBS and mounted with prolong gold anti-fade.
# [6] = molecular target: T1, STAT3; assay: Cell binding assay of anti-STAT3 antibodies, fixed and permeabilized cells, flow cytometry; set-up: endogenous in cells; details: MDA-MB-468 and U251 cells, serial dilutions, PE anti-human IgG
# Description: Next, the binding of the candidate anti-STAT3 antibodies to cellular targets was tested in cell binding assays using MDA-MB-435 breast cancer cells and U251 cells. The cells were seeded overnight in a 96 well plate, then fixed with PFA and permeabilized with methanol. Cells were incubated with serial dilutions of the anti-STAT3 antibody candidates ST1A5, ST3G12 and ST5G12 for one hour and 30 minutes. Following incubation, the cells were washed and incubated for 30 minutes with phycoerythrin (PE) conjugated anti-human IgG. Fluorescence was measured on an Intellicyte high-throughput flow cytometry analyzer. […] Bevacizumab (Avastin), a monoclonal antibody that inhibits vascular endothelial growth factor A (VEGF-A) was used as a negative control.
# [7] = molecular target: T1, STAT3; assay: IL-6-stimulated STAT3 phosphorylation ELISA in MCF-10A and MCF-7 cells; type: cell-based; set-up: endogenous in cells; details: overnight pre-treatment, IL-6 10 or 40 ng/ml 20 min
# Description: Cells were pre-treated overnight with antibody, and then stimulated with various concentrations of IL-6 for 20 minutes (10 ng/ml or 40 ng/ml). IL-6 is a STAT3 activator. Cells were then lysed and the protein lysates were subjected to ELISA to determine the phosphorylation status. […] “OS-AIP” refers to an oligosaccharide conjugated bacterial AIP protein, used as a control.
# T1 sequence (P40763 whole entry): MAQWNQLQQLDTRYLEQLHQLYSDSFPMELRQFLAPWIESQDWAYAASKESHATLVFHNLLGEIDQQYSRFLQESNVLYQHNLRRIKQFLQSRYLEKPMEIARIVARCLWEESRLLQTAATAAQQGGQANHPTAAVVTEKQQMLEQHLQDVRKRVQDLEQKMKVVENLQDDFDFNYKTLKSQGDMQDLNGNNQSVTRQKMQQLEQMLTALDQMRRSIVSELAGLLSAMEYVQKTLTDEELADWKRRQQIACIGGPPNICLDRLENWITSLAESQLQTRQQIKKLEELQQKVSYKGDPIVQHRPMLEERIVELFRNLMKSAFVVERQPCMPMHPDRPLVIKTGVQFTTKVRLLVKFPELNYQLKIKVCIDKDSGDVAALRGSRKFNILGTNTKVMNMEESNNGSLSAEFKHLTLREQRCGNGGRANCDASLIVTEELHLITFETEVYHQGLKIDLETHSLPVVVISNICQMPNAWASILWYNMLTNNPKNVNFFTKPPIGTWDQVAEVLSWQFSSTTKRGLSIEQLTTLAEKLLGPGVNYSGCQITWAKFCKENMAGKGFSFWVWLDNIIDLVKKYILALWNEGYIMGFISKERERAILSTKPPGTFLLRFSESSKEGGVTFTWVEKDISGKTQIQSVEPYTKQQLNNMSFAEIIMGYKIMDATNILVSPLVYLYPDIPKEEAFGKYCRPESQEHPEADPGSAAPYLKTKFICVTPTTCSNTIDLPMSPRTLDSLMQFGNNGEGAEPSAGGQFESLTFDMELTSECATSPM
molecule,measurement,setting,value
"O=C1NC(=NS(=O)(=O)c2cccc3ccccc23)S/C1=C\c1ccc(Br)cc1 [PS2, Pitstop2]",effect of inhibitor on compound 901a uptake,[1]; inhibitor 30 uM and 60 uM,inhibited compound 901a uptake
CCCCC[C@@H](O)[C@H]1C(=O)O[C@H](C)[C@@H](O)/C=C/C=C/C=C/C=C/C=C(\C)[C@@H](O)C[C@H](O)C[C@H](O)C[C@H](O)C[C@H](O)C[C@H](O)C[C@@H]1O [filipin],effect of inhibitor on compound 901a uptake,[1]; inhibitor 0.5 ug/ml,little effect
same,effect of inhibitor on compound 901a uptake,[1]; inhibitor 1.0 ug/ml,greater effect
"ST3G12: Human anti-human STAT3 antibody; heavy chain variable SEQ ID NO: 3, light chain variable SEQ ID NO: 4 (antibody, V domains shown) VH: QVQLVQSGAEVKKPGASVKVSCKASGYTFTSYYMHWVRQAPGQGLEWMGIINPSGGSTSYAQKFQGRVTMTRDTSTSTVYMELSSLRSEDTAVYYCARSDYVHSFDIWGQGTMVTVSS VL: QPVLTQPPSASALLGASIKLTCTLSSEHSTYTVEWYQQRPGRSPQYIMNVKSDGSYNKGDGIPDRFMGSSSGADRYLTFSNLQSDDEAEYHCGESHRIDGQVGVVFGGGTKLTVL",binding to cellular antigens in U251 cells,[2],considerably lower
same,Rmax,[3],174 RU
same,kd,[3],0.000322 s⁻¹
same,ka,[3]; STAT3-GST from 100 nm,59700 M⁻¹ s⁻¹
same,binding to GST protein,[4],No binding
same,cell penetration / internalization,[5],no internalization
same,binding to STAT3 / cellular antigens (MFI),[6],bound STAT3
same,effect on STAT3 phosphorylation,[7],little to no effect
